According to IntAct's records for PubMed 20010840:

B1: Signaling lymphocytic activation molecule (Homo sapiens), Q13291 (parent)
chain: MDPKGLLSLTFVLFLSLAFGASYGTGGRMMNCPKILRQLGSKVLLPLTYERINKSMNKSIHIVVTMAKSLENSVENKIVSLDPSEAGPPRYLGDRYKFYLENLTLGIRESRKEDEGWYLMTLEKNVSVQRFCLQLRLYEQVSTPEIKVLNKTQENGTCTLILGCTVEKGDHVAYSWSEKAGTHPLNPANSSHLLSLTLGPQHADNIYICTVSNPISNNSQTFSPWPGCRTDPSETKPWAVYAGLLGGVIMILIMVVILQLRRRGKTNHYQTTVEKKSLTIYAQVQKPGPLQKKLDSFPAQDPCTTIYVAATEPVPESVQETNSITVYASVTLPES

Variants of: B1
Conditions: with hema_mease H

| Variant | effect of a mutation on the interaction |
| --- | --- |
| MDPKGLLSLTFVLFLSLAFGASYGTGGRMMNCPKILRQLGSKVLLPLTYERINKSMNKSIHIVVTMAKSLENSVENKIVSLDPSEAGGGRYLGDRYKFYLENLTLGIRESRKEDEGWYLMTLEKNVSVQRFCLQLRLYEQVSTPEIKVLNKTQENGTCTLILGCTVEKGDHVAYSWSEKAGTHPLNPANSSHLLSLTLGPQHADNIYICTVSNPISNNSQTFSPWPGCRTDPSETKPWAVYAGLLGGVIMILIMVVILQLRRRGKTNHYQTTVEKKSLTIYAQVQKPGPLQKKLDSFPAQDPCTTIYVAATEPVPESVQETNSITVYASVTLPES [P88G;P89G] | decreasing interaction |
| MDPKGLLSLTFVLFLSLAFGASYGTGGRMMNCPKILRQLGSKVLLPLTYERINKSMNKSIHIVVTMAKSLENSVENKIVSLDPSEAGPPAYLGDRYKFYLENLTLGIRESRKEDEGWYLMTLEKNVSVQRFCLQLRLYEQVSTPEIKVLNKTQENGTCTLILGCTVEKGDHVAYSWSEKAGTHPLNPANSSHLLSLTLGPQHADNIYICTVSNPISNNSQTFSPWPGCRTDPSETKPWAVYAGLLGGVIMILIMVVILQLRRRGKTNHYQTTVEKKSLTIYAQVQKPGPLQKKLDSFPAQDPCTTIYVAATEPVPESVQETNSITVYASVTLPES [R90A] | decreasing interaction |
| MDPKGLLSLTFVLFLSLAFGASYGTGGRMMNCPKILRQLGSKVLLPLTYERINKSMNKSIHIVVTMAKSLENSVENKIVSLDPSEAGPPRALGDRYKFYLENLTLGIRESRKEDEGWYLMTLEKNVSVQRFCLQLRLYEQVSTPEIKVLNKTQENGTCTLILGCTVEKGDHVAYSWSEKAGTHPLNPANSSHLLSLTLGPQHADNIYICTVSNPISNNSQTFSPWPGCRTDPSETKPWAVYAGLLGGVIMILIMVVILQLRRRGKTNHYQTTVEKKSLTIYAQVQKPGPLQKKLDSFPAQDPCTTIYVAATEPVPESVQETNSITVYASVTLPES [Y91A] | decreasing interaction |
